Columns and labels:
[1] = target: recombinant human IFN-alpha (human); assay: cell-based or functional assay
human IFN-beta (human) = human IFN-beta (human) (UniProt P01574); assay: cell-based or functional assay
Chain of UniProt P01574 (P01574 22-187 limits assumed): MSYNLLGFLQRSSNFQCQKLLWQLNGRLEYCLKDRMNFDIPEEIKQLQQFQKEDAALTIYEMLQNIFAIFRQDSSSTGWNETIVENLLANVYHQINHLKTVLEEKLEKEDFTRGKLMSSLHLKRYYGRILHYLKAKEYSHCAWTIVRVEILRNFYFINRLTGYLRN

Substance: Vaccinia virus B19 IFN-binding protein (full length protein) (from UniProt P25213 20-351)
- percent neutralization of IFN at a 1:400 dilution of the medium [1]: > 80%
- percent neutralization of IFN at a 1:400 dilution of the medium (human IFN-beta (human)): > 50%
